Experimental findings from patent US10745461B2, “Pulsed introduction of low-dose RANKL as a therapy for diet-induced atherosclerosis” (Saint Louis University, priority 2015, dated 2020) are described below.

The subject of series [1] is FoxP3+ CD8 T-cells (TcREG). Nature of the series: RANKL dose finding: FoxP3+ CD8 T-cells in bone marrow of FoxP3-GFP reporter mice. To be noted: two consecutive days, 50 hours after first dose, lowest dose 0.125 mg/kg. In kind it is in vivo. As to the method:
FIGS. 1A, 1B and 1C indicate that TcREG are induced by activated osteoclasis. […] In the absence of RANK L treatment, very low level of conversion was observed after three days. […] ZA was administered intravenously one week prior to adoptive transfer of CD8 T-cells.
It was first determined the dose of RANKL that produced the maximal number FoxP3^+ CD8 T-cells in the bone marrow. RANKL was administered into FoxP3-GFP reporter mice at various doses for two consecutive days. Fifty hours after first dose, the mice were sacrificed and the numbers of CD8 T-cells that were GFP positive cells in the bone marrow were measured. […] The increased levels of FoxP3 in the bone marrow could either be due to recruitment of TcREG to the bone marrow or induction of FoxP3 expression in cells that were FoxP3 negative. To test for induction FACS sorted the GFP negative population of CD8 (Thy 1.2+ that were CD44 negative or naïve) from the spleens and bone marrow to high purity (FIG. 1C first panel) and adoptively transferred them into congenically marked (Thy 1.1) OT-I Rag^−/− mice. […] In the absence of RANKL administration low levels […] CD8 T-cell were detected (FIGS. 1B and C second panel), but RANKL administration (0.125 mg/kg) yielded ˜1% […] Thy 1.2 T-cells (FIGS. 1B and 1C third panel). […]

Series [2] concerns FoxP3 induction in OT-I CD8 T-cells by osteoclasts. Nature of the series: TcREG (FoxP3) induction in OT-I CD8 T-cells co-cultured with bone marrow-derived osteoclasts. The series is classed as cell-based, mice. To be noted: 10 ng/ml or 20 ng/ml TNFα, OVA. As to the method: It was also determined that IL-17 and TNFα suppresses TcREG induction by osteoclasts. […] Another possibility is that loss of estrogen leads to increased production of the pro-inflammatory cytokines by T-cells that increase osteoclast activity. Without being limited to any method of operation, it is actually expected that in the presence of pro-inflammatory cytokines osteoclasts fail to induce TcREG. As estrogen depletion lead to greater number of osteoclasts because of a decreased Fas ligand expression, the loss of TcREG induction and increased osteoclast numbers would tip the balance towards increased osteoclast resorption and net bone loss. To test fir this possibility, OC-iTcREG induction was measured in the presence of IL-17 and TNFα. […] To understand the underlying mechanism of how TNFα affects osteoclasts' ability to induce TcREG, the signals provided by osteoclasts to induce FoxP3 in the CD8 T-cells were investigated along with if these signals were affected by […].
The most common and well-studied costimulatory signals on antigen-presenting cells are CD80 (B7.1) and CD86 (B7.2). As CD80/CD86 double knockout mice are commercially available, osteoclasts were generated from bone marrow precursors of these mice. The CD80/CD86 null osteoclasts (as well as wild-type controls) were then used to prime OT-I T-cells in the presence and absence of antigen. […] OT-I CD8 T-cells activated by CD80/CD86 null osteoclasts produced IL-6, IL-2 and IFN-γ to levels indistinguishable from wild-type mice (FIG. 4B). Having ruled out CD80/CD86 as the costimulatory molecules, an osteoclast microarray dataset was queried for other costimulatory molecules expressed by osteoclasts. Osteoclasts that express CD200 and c-Mer were found. The role of CD200 was chosen for testing based on the phenotype of CD200^−/− mice and the reported role for CD200 in regulating TcREG.
The most, well characterized regulator of FoxP3 in T-cells is TGFβ. It has been previously shown that neutralization or addition of TGFβ has no effect on the induction of TcREG. Therefore identification of other pathways that can regulate the FoxP3 promoter in T-cells was sought. A number of previous studies have identified that the Notch signaling contributes to FoxP3 induction. To test if Notch signaling is important for TcREG induction by osteoclasts, the γ-Secretase inhibitor DAPT was initially used. Ligation of the Notch receptor by its ligand leads to cleavage of Notch by γ-secretase. […] Next, we identified the Notch ligands expressed in osteoclasts using reverse-transcription followed by PCR. […] Of the four, the osteoclast-precursors (bone marrow cells treated with M-CSF but not RANKL) express all of the ligands except DLL4 (FIG. 5C). To assess the role of DLL4 in TcREG (soluble) DLL4-Fc was added to OT-I CD8 T-cells prior to co-culturing with osteoclasts. […] To assess the role of DLL4 in vivo the induction experiments as described in FIG. 1 were performed: GFP negative (polyclonal) CD8 T-cells were purified by cell sorting and transferred into OT-II Rag^−/− mice. Two hours prior to RANKL treatment, DLL4-Fc or a control IgG1-Fc, were injected intravenously into the recipient mice, As described for FIG. 1, RANKL (0.125 mg/kg) was then administered on two consecutive days.
DLL-4 expression is repressed in the presence of […] and IL-17 but can be de-repressed by RANKL. […]

Another series deals with ovariectomized mice. Nature of the series: Pulsed versus continuous (ALZET pump) RANKL in OVX mice. The series is classed as in vivo. On the procedure:
FIGS. 10A through 10E show the effect of delivering RANKL in pulses as opposed to a continuous exposure leads to its antiresorptive effect. 12 week old mice were treated either as sham-operated or OVX using pumps or pulsed. Two weeks post-surgery ALZET® pumps were implanted in the intraperitoneal cavity that contained either PBS or RANKL as indicated in the plots above. All groups were pulsed with equivalent dose of RANKL (0.125 mg/kg, pulsed twice 24 hrs. apart) or PBS as indicated in the plots. […] In FIG. 10B, Quantification across groups (6 mice/group).

“Also recorded” adds a separate entry of the source.

B1: receptor activator of NF-κB ligand (protein, UniProt O35235 139-316, looked up)
Tumor necrosis factor ligand …: FSGAPAMMEGSWLDVAQRGKPEAQPFAHLTINAASIPSGSHKVTLSSWYHDRGWAKISNMTLSNGKLRVNQDGFYYLYANICFRHHETSGSVPTDYLQLMVYVVKTSIKIPSSHNLMKGGSTKNWSGNSEFHFYSINVGGFFKLRAGEEISIQVSNPSLLDPDQDATYFGAFKVQDID
modifications: GST tag
For B1, in series [1], the “proportion of FoxP3+ CD8 T cells in the bone marrow as a function of RANKL dose” value is reported as “induced the largest proportion of FoxP3^+ CD8 T cells”. In addition, the “restoration of TcREG induction by additional RANKL in the presence of TNFα” value in series [2] is recorded as “restores induction of TcREG; also recorded: the induction of TcREG was also restored”. Further, the figures for the bone resorption entry in the series with ovariectomized mice (continuous delivery via osmotic pumps) and in the series with ovariectomized mice (pulsed) were “led to increased bone resorption” and “decreased levels of bone resorption were observed”, respectively. In addition, the TcREG induction entry with ovariectomized mice (continuous exposure by pump, identical dose) is “did not induce TcREG; also recorded: No TcREG induction is observed”; in the series on ovariectomized mice (pulsed, 0.125 mg/kg twice 24 hrs apart), “induced TcREG”. Moreover, the “Bone volume (BV/TV)” value in the series on ovariectomized mice (delivered by pump) is reported as “decreased”; in the series on ovariectomized mice (pulsed), “restored to levels observed in sham-operated mice”. Further, the TEFF cells result in the series on ovariectomized mice (pulsed) is listed as “decrease in TEFF cells was only observed in mice pulsed with RANKL”.
